{
  "source": "paper doi:10.1101/2021.05.06.441046",
  "key": {"[1]": {"biological_target": "5P_FL2 spike (six-proline FL2 spike with P986 reverted to K986) (SARS-CoV-2) (UniProt P0DTC2)", "experiment": "SEC"}, "[2]": {"biological_target": "5P_FL2 spike (six-proline FL2 spike with P986 reverted to K986) (SARS-CoV-2) (UniProt P0DTC2)", "experiment": "negative-stain electron microscopy"}, "[3]": {"biological_target": "6P_DS3 spike (six-proline spike with the inter-protomer disulfide Y707C/T883C) (SARS-CoV-2) (UniProt P0DTC2)", "experiment": "non-reducing SDS-PAGE"}, "[4]": {"biological_target": "6P_DS3 spike (six-proline spike with the inter-protomer disulfide Y707C/T883C) (SARS-CoV-2) (UniProt P0DTC2)", "experiment": "SEC"}, "[5]": {"biological_target": "6P_DS3 spike (six-proline spike with the inter-protomer disulfide Y707C/T883C) (SARS-CoV-2) (UniProt P0DTC2)", "experiment": "negative-stain electron microscopy"}, "[6]": {"biological_target": "VFLIP_D614G spike (VFLIP variant bearing the D614G mutation) (SARS-CoV-2) (UniProt P0DTC2)", "experiment": "cryo-EM structure"}},
  "data": [
    {"substance": "5P_FL2 spike (six-proline FL2 spike with P986 reverted to K986) (from UniProt P0DTC2) (domain or fragment)", "values": [
      {"measurement": "stoichiometry N", "setting": "[1]", "result": 3},
      {"measurement": "stoichiometry N", "setting": "[2]", "result": 3}
    ]},
    {"substance": "6P_DS3 spike (six-proline spike with the inter-protomer disulfide Y707C/T883C) (from UniProt P0DTC2 13-1208) (domain or fragment)", "values": [
      {"measurement": "stoichiometry N", "setting": "[3]", "result": 3},
      {"measurement": "stoichiometry N", "setting": "[4]", "result": 3},
      {"measurement": "stoichiometry N", "setting": "[5]", "result": 3}
    ]},
    {"substance": "VFLIP_D614G spike (VFLIP variant bearing the D614G mutation) (from UniProt P0DTC2) (domain or fragment)", "values": [
      {"measurement": "stoichiometry N", "setting": "[6]", "result": 3}
    ]}
  ]
}
